The results in this text go back to patent US20190127438.

Data set [1] deals with T1, protease resistant A43-FceRIa (K43 to A43 variant of recombinant human FceRIa).
T1 chain 1: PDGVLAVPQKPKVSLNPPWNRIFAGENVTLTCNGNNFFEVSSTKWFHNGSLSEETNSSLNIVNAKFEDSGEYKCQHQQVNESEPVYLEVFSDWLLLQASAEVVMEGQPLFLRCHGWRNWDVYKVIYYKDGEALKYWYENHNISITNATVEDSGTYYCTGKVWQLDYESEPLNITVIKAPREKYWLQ
T1 chain 2: HHHHHH

The target in data set [2] is T2, recombinant wild type FceRIa (extracellular region of the alpha chain of the human high-affinity IgE receptor, spacer, 6His).
T2 chain: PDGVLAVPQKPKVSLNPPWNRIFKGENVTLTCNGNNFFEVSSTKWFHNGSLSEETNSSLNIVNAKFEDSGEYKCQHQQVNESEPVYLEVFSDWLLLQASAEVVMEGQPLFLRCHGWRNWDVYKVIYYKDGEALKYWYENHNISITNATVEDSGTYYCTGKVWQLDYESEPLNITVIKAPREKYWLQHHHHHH

B1: plasmin (Sigma P1867) (protein)
chain: KVYLSECKTGNGKNYRGTMSKTKNGITCQKWSSTSPHRPRFSPATHPSEGLEENYCRNPDNDPQGPWCYTTDPEKRYDYCDILECEEECMHCSGENYDGKISKTMSGLECQAWDSQSPHAHGYIPSKFPNKNLKKNYCRNPDRELRPWCFTTDPNKRWELCDIPRCTTPPPSSGPTYQCLKGTGENYRGNVAVTVSGHTCQHWSAQTPHTHNRTPENFPCKNLDENYCRNPDGKRAPWCHTTNSQVRWEYCKIPSCDSSPVSTEQLAPTAPPELTPVVQDCYHGDGQSYRGTSSTTTTGKKCQSWSSMTPHRHQKTPENYPNAGLTMNYCRNPDADKGPWCFTTDPSVRWEYCNLKKCSGTEASVVAPPPVVLLPDVETPSEEDCMFGNGKGYRGKRATTVTGTPCQDWAAQEPHRHSIFTPETNPRAGLEKNYCRNPDGDVGGPWCYTTNPRKLYDYCDVPQCAAPSFDCGKPQVEPKKCPGRVVGGCVAHPHSWPWQVSLRTRFGMHFCGGTLISPEWVLTAAHCLEKSPRPSSYKVILGAHQEVNLEPHVQEIEVSRLFLEPTRKDIALLKLSSPAVITDKVIPACLPSPNYVVADRTECFITGWGETQGTFGAGLLKEAQLPVIENKVCNRYEFLNGRVQSTELCAGHLAGGTDSCQGDSGGPLVCFEKDKYILQGVTSWGLGCARPNKPGVYVRVSRFVTWIEGVMRNN
Turning to B1, in data set [1], the “plasmin cleavage, Base Peak Chromatogram (LC-MS)” value is recorded as “complete absence of a cleavage product in the mutant, protease resistant variant of recombinant A43-FceRIa (black line), whereas the wild type receptor digest peak appears at 30 min (grey line)”. Moreover, the “plasmin cleavage, peptides in the Base Peak Chromatogram (LC-MS)” value in data set [2] was “Site K43 (indicated as peptide K in FIG. 2B) of recombinant wt FceRIa was preferentially cleaved whereas plasmin cleavage sites K31, R40, K201, R199, K196 and K142 (indicated as peptide 1-8 in FIG. 2B) were cleaved to lesser extent”.
